Assay results published in PMC8056151.

Target: AG-tagged DDB1 (DNA damage-binding protein 1) (human) (UniProt Q16531)
Assay: Fluoppi

UniProt Q16531, sequence (Q16531 whole entry): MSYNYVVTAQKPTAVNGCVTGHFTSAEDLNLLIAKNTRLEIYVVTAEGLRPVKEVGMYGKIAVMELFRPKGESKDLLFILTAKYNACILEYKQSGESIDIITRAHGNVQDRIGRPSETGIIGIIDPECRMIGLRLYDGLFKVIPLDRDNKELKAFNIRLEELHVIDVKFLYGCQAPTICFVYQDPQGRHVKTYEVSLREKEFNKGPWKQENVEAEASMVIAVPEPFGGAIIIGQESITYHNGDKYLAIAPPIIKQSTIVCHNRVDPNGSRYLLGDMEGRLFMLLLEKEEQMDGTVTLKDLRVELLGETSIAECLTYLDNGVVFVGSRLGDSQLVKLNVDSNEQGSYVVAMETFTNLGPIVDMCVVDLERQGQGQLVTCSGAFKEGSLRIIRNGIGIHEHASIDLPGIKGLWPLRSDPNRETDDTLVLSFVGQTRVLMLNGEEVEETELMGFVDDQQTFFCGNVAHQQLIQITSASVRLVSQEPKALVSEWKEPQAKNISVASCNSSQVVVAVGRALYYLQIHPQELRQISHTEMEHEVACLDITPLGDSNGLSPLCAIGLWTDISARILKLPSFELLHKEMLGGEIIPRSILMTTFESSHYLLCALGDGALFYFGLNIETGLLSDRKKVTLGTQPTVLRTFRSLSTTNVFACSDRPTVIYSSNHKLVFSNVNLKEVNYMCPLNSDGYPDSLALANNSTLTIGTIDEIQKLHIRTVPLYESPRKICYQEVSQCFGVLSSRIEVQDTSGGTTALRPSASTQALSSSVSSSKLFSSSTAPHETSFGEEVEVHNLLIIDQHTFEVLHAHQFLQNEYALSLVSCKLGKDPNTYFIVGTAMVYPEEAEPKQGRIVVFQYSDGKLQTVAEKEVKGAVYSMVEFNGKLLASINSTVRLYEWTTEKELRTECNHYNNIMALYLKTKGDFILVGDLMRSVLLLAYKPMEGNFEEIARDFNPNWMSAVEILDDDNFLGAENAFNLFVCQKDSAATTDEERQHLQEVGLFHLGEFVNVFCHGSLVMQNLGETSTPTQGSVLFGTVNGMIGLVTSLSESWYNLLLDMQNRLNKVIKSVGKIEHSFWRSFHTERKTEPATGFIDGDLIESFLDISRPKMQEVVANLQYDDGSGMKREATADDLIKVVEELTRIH

Substance: Ash-tagged hepatitis B virus X protein (full-length HBx, wild type) (natural protein)
- percent of fluorescent puncta left with NTZ: 50%
